The record followed here is publication PMC8145704 (Microorganisms, 2021).

What is called Kd is the concentration at which binding is half-saturated. Read a high Kd as weaker binding. Usually stoichiometry N stands for a count of units in the complex or per binding partner.

Ends that are not written are not given here.

Holding throughout (details): both partners purified
The target in assay [1] is T1, WT-HBc capsids (hepatitis B core protein, genotype D; strain ayw; GenBank: V01460.1) (Hepatitis B virus (genotype D; strain …, UniProt P03146 1-183).
T1 construct: also called HBc-WT; HBc-CLPs; copies: 240
The assay is described as follows: ITC. In general terms: In ITC the heat of successive injections is recorded.

Assay [2] has as its target T1, WT-HBc capsids (hepatitis B core …). In words: peptide or protein array.
Assay [3] deals with T2, P5T-HBc capsids (Hepatitis B virus (genotype D; strain …, UniProt P03146 1-183, P5T).
T2 construct: copies: 240
In words: ITC.

Assay [4] has as its target T3, F97L-HBc capsids (Hepatitis B virus (genotype D; strain …, UniProt P03146 1-183, F97L).
T3 construct: copies: 240
The assay is described as follows: ITC.

Assay [5] deals with T4, L60V-HBc capsids (Hepatitis B virus (genotype D; strain …, UniProt P03146 1-183, L60V).
T4 construct: copies: 240
In words: ITC.

The target of assay [6] is T2, P5T-HBc capsids. In words: cryo-EM structure.
Assay [7] addresses T3, F97L-HBc capsids. The assay is described as follows: cryo-EM structure.
The target of assay [8] is T4, L60V-HBc capsids. In words: cryo-EM structure.

B1: Peptide “SLLGRM” (core binding motif) (peptide)
peptide: H-SLLGRM-NH2
notes: shortened stretch of P2; source: synthetic peptide (Fmoc solid-phase synthesis, HPLC purified)
Turning to B1, in assay [1], the Kd is 130 µM, the dH is -8.3 kcal/mol and the “stoichiometry N” value is 0.25 peptide/HBc.

For the molecule GSLLGRMKGA (not fully specified (C-terminus)) [Peptide P2 “GSLLGRMKGA” on µSPOT peptide microarray], the binding result in assay [2] is listed as “binds”.

For the molecule GSLLGRMKGA (source: synthetic peptide) [Peptide P2 “GSLLGRMKGA”], the dH was -14.4 kcal/mol in assay [1], -7.7 kcal/mol with P5T-HBc capsids [3], -9.9 kcal/mol with F97L-HBc capsids [4] and -6.6 kcal/mol with L60V-HBc capsids [5]. Further, the “stoichiometry N” value in assay [1] turned out to be 0.48 peptide/HBc; with P5T-HBc capsids [3], 0.45 peptide/HBc; in the assay with F97L-HBc capsids [4] it was 0.52 peptide/HBc; with L60V-HBc capsids [5], 0.5 peptide/HBc.

For the molecule MHRSLLGRMKGA (source: synthetic peptide) [Peptide P1 “MHRSLLGRMKGA”], the Kd in assay [1] stood at 26 µM. Moreover, the dH in assay [1] is -9 kcal/mol. The “stoichiometry N” value in assay [1] was 0.45 peptide/HBc. The binding result with P5T-HBc capsids [6], with F97L-HBc capsids [7] and with L60V-HBc capsids [8] was “binds” each time.
